# Assay results taken from article doi:10.1101/2024.01.09.574827, “Discovery and binding mode of small molecule inhibitors of the apo form of human TDO2” (bioRxiv, 2024).
# B1: truncated human apo-TDO2 (aa 39-389) with a C-terminal hexa-histidine tag (enzyme, UniProt P48775 39-389, looked up)
# chain: GLIYGNYLHLEKVLNAQELQSETKGNKIHDEHLFIITHQAYELWFKQILWELDSVREIFQNGHVRDERNMLKVVSRMHRVSVILKLLVQQFSILETMTALDFNDFREYLSPASGFQSLQFRLLENKIGVLQNMRVPYNRRHYRDNFKGEENELLLKSEQEKTLLELVEAWLERTPGLEPHGFNFWGKLEKNITRGLEEEFIRIQAKEESEEKEEQVAEFQKQKEVLLSLFDEKRHEHLLSKGERRLSYRALQGALMIYFYREEPRFQVPFQLLTSLMDIDSLMTKWRYNHVCMVHRMLGSKAGTGGSSGYHYLRSTVSDRYKVFVDLFNLSTYLIPRHWIPKMNPTIHKFL
# notes: human tryptophan-2,3-dioxygenase (TDO2), P48775.1, amino acids 39-389, heme-free (apo) form; S1 Text is said to show additional amino acids introduced as a linker or during subcloning; calculated molecular mass 42940.24 Da; also called tryptophan-2,3-dioxygenase; TDO2 aa39-389-His6; source: E. coli RP523 (hemB mutant, unable to synthesize heme), anaerobic expression, purified (HisTrap, HiTrap Q, …)
# Molecular target: the molecule itself
# Test: crystal structure; sitting drop vapour diffusion at 293 K; truncated apo-TDO2 with 2 mM AMT, alone or after incubation with 1 mM inhibitor (Rac-1, Cpd-1, Cpd-4)
protein,measurement,value
B1,stoichiometry N,4
